{
  "source": "patent US20250163162A1",
  "data": [
    {"target": "T1, IL10Rα/IL2Rγ receptor (human) (UniProt Q13651)", "T1 sequence (looked up) 1": "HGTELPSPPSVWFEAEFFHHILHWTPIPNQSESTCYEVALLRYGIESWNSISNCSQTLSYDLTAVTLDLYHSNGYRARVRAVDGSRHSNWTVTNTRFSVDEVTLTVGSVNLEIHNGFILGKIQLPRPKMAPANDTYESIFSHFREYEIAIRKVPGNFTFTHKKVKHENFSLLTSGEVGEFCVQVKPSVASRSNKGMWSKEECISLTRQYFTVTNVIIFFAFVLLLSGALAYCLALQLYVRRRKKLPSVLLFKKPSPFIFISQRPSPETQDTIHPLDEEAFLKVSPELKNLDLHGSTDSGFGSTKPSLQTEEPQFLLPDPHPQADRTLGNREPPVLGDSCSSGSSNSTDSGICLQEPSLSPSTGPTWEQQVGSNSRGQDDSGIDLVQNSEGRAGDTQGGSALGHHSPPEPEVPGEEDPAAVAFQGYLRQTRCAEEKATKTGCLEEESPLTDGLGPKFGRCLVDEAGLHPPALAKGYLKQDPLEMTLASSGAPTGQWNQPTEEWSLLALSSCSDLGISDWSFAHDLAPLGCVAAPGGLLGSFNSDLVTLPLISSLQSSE", "T1 sequence (looked up) 2": "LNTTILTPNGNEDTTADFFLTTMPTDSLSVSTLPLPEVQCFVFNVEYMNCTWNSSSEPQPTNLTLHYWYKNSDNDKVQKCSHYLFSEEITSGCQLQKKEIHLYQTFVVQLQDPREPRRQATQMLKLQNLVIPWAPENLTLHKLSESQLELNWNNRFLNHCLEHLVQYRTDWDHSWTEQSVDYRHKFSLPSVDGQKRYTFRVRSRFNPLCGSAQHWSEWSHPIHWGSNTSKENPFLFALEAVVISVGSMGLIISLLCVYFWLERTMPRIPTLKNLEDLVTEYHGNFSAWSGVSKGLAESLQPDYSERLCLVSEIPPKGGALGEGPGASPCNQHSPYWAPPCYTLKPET", "experiment": "cell-based or functional assay", "units": {"Granzyme A secretion, CD8 T cells, at 0 µM": "pg/mL", "Granzyme A secretion, CD8 T cells, at 0.0001 µM": "pg/mL", "Granzyme A secretion, CD8 T cells, at 0.001 µM": "pg/mL", "Granzyme A secretion, CD8 T cells, at 0.01 µM": "pg/mL", "Granzyme A secretion, CD8 T cells, at 0.1 µM": "pg/mL", "Granzyme A secretion, CD8 T cells, at 1 µM": "pg/mL", "Granzyme A secretion, CD8 T cells, at 10 µM": "pg/mL", "Granzyme A secretion, CD8 T cells, at 100 µM": "pg/mL", "Granzyme B secretion, CD8 T cells, at 0 µM": "pg/mL", "Granzyme B secretion, CD8 T cells, at 0.0001 µM": "pg/mL", "Granzyme B secretion, CD8 T cells, at 0.001 µM": "pg/mL", "Granzyme B secretion, CD8 T cells, at 0.01 µM": "pg/mL", "Granzyme B secretion, CD8 T cells, at 0.1 µM": "pg/mL", "Granzyme B secretion, CD8 T cells, at 1 µM": "pg/mL", "Granzyme B secretion, CD8 T cells, at 10 µM": "pg/mL", "Granzyme B secretion, CD8 T cells, at 100 µM": "pg/mL", "IFNγ secretion, CD8 T cells, at 0 µM": "pg/mL", "IFNγ secretion, CD8 T cells, at 0.0001 µM": "pg/mL", "IFNγ secretion, CD8 T cells, at 0.001 µM": "pg/mL", "IFNγ secretion, CD8 T cells, at 0.01 µM": "pg/mL", "IFNγ secretion, CD8 T cells, at 0.1 µM": "pg/mL", "IFNγ secretion, CD8 T cells, at 1 µM": "pg/mL", "IFNγ secretion, CD8 T cells, at 10 µM": "pg/mL", "IFNγ secretion, CD8 T cells, at 100 µM": "pg/mL", "IL-1β secretion, LPS treated monocytes, at 0 µM": "pg/mL", "IL-1β secretion, LPS treated monocytes, at 0 µM (LPS only)": "pg/mL", "IL-1β secretion, LPS treated monocytes, at 0.0001 µM": "pg/mL", "IL-1β secretion, LPS treated monocytes, at 0.001 µM": "pg/mL", "IL-1β secretion, LPS treated monocytes, at 0.01 µM": "pg/mL", "IL-1β secretion, LPS treated monocytes, at 0.1 µM": "pg/mL", "IL-1β secretion, LPS treated monocytes, at 1 µM": "pg/mL", "IL-1β secretion, LPS treated monocytes, at 10 µM": "pg/mL", "IL-1β secretion, LPS treated monocytes, at 100 µM": "pg/mL", "IL-9 secretion, CD8 T cells, at 0 µM": "pg/mL", "IL-9 secretion, CD8 T cells, at 0.0001 µM": "pg/mL", "IL-9 secretion, CD8 T cells, at 0.001 µM": "pg/mL", "IL-9 secretion, CD8 T cells, at 0.01 µM": "pg/mL", "IL-9 secretion, CD8 T cells, at 0.1 µM": "pg/mL", "IL-9 secretion, CD8 T cells, at 1 µM": "pg/mL", "IL-9 secretion, CD8 T cells, at 10 µM": "pg/mL", "IL-9 secretion, CD8 T cells, at 100 µM": "pg/mL"}, "values": [
      {"binder": "hIL10Ra_VHH14 - hIL2Rg_VHH19, linker …, tag his (bispecific antibody, not shown: small tags and cut ends) QVQLQESGGGSVQAGGSLRLSCGASGYTYSSYCMGWFRQVPGKEREGVAVIDSDGSTSYADSVKGRFTISKDNGKNTLYLQMNSLKPEDTAMYYCAADLGHYRPPCGVLYLGMDYWGKGTQVTVSSGGSGGSGGSGQVQLQESGGGSVQAGGSLRLSCTASGFTFDDREMNWYRQAPGNECELVSTISSDGSTYYADSVKGRFTISQDNAKNTVYLQMDSVKPEDTAVYYCAADFMIAIQAPGAGCWGQGTQVTVSS", "Granzyme A secretion, CD8 T cells, at 0 µM": 25200, "Granzyme A secretion, CD8 T cells, at 0.0001 µM": 20600, "Granzyme A secretion, CD8 T cells, at 0.001 µM": 25200, "Granzyme A secretion, CD8 T cells, at 0.01 µM": 28100, "Granzyme A secretion, CD8 T cells, at 0.1 µM": 29300, "Granzyme A secretion, CD8 T cells, at 1 µM": 31000, "Granzyme A secretion, CD8 T cells, at 10 µM": 31500, "Granzyme A secretion, CD8 T cells, at 100 µM": 29900, "Granzyme B secretion, CD8 T cells, at 0 µM": 77700, "Granzyme B secretion, CD8 T cells, at 0.0001 µM": 68900, "Granzyme B secretion, CD8 T cells, at 0.001 µM": 70600, "Granzyme B secretion, CD8 T cells, at 0.01 µM": 71000, "Granzyme B secretion, CD8 T cells, at 0.1 µM": 79300, "Granzyme B secretion, CD8 T cells, at 1 µM": 112000, "Granzyme B secretion, CD8 T cells, at 10 µM": 125000, "Granzyme B secretion, CD8 T cells, at 100 µM": 106000, "IFNγ secretion, CD8 T cells, at 0 µM": 122000, "IFNγ secretion, CD8 T cells, at 0.0001 µM": 90100, "IFNγ secretion, CD8 T cells, at 0.001 µM": 125000, "IFNγ secretion, CD8 T cells, at 0.01 µM": 127000, "IFNγ secretion, CD8 T cells, at 0.1 µM": 130000, "IFNγ secretion, CD8 T cells, at 1 µM": 147000, "IFNγ secretion, CD8 T cells, at 10 µM": 154000, "IFNγ secretion, CD8 T cells, at 100 µM": 141000, "IL-1β secretion, LPS treated monocytes, at 0 µM": 6240, "IL-1β secretion, LPS treated monocytes, at 0 µM (LPS only)": 6880, "IL-1β secretion, LPS treated monocytes, at 0.0001 µM": 5890, "IL-1β secretion, LPS treated monocytes, at 0.001 µM": 5390, "IL-1β secretion, LPS treated monocytes, at 0.01 µM": 6020, "IL-1β secretion, LPS treated monocytes, at 0.1 µM": 5240, "IL-1β secretion, LPS treated monocytes, at 1 µM": 5680, "IL-1β secretion, LPS treated monocytes, at 10 µM": 7120, "IL-1β secretion, LPS treated monocytes, at 100 µM": 8780, "IL-9 secretion, CD8 T cells, at 0 µM": 1350, "IL-9 secretion, CD8 T cells, at 0.0001 µM": 1010, "IL-9 secretion, CD8 T cells, at 0.001 µM": 1320, "IL-9 secretion, CD8 T cells, at 0.01 µM": 1390, "IL-9 secretion, CD8 T cells, at 0.1 µM": 1450, "IL-9 secretion, CD8 T cells, at 1 µM": 1590, "IL-9 secretion, CD8 T cells, at 10 µM": 2050, "IL-9 secretion, CD8 T cells, at 100 µM": 1960},
      {"binder": "hIL10Ra_VHH14 - hIL2Rg_VHH19, linker GGSGGS, tag his (bispecific antibody, not shown: small tags and cut ends) QVQLQESGGGSVQAGGSLRLSCGASGYTYSSYCMGWFRQVPGKEREGVAVIDSDGSTSYADSVKGRFTISKDNGKNTLYLQMNSLKPEDTAMYYCAADLGHYRPPCGVLYLGMDYWGKGTQVTVSSGGSGGSQVQLQESGGGSVQAGGSLRLSCTASGFTFDDREMNWYRQAPGNECELVSTISSDGSTYYADSVKGRFTISQDNAKNTVYLQMDSVKPEDTAVYYCAADFMIAIQAPGAGCWGQGTQVTVSS", "Granzyme A secretion, CD8 T cells, at 0 µM": 25200, "Granzyme A secretion, CD8 T cells, at 0.0001 µM": 20800, "Granzyme A secretion, CD8 T cells, at 0.001 µM": 23000, "Granzyme A secretion, CD8 T cells, at 0.01 µM": 25300, "Granzyme A secretion, CD8 T cells, at 0.1 µM": 27100, "Granzyme A secretion, CD8 T cells, at 1 µM": 28700, "Granzyme A secretion, CD8 T cells, at 10 µM": 29400, "Granzyme A secretion, CD8 T cells, at 100 µM": 25600, "Granzyme B secretion, CD8 T cells, at 0 µM": 77700, "Granzyme B secretion, CD8 T cells, at 0.0001 µM": 54500, "Granzyme B secretion, CD8 T cells, at 0.001 µM": 50900, "Granzyme B secretion, CD8 T cells, at 0.01 µM": 54100, "Granzyme B secretion, CD8 T cells, at 0.1 µM": 62300, "Granzyme B secretion, CD8 T cells, at 1 µM": 77600, "Granzyme B secretion, CD8 T cells, at 10 µM": 90000, "Granzyme B secretion, CD8 T cells, at 100 µM": 77900, "IFNγ secretion, CD8 T cells, at 0 µM": 122000, "IFNγ secretion, CD8 T cells, at 0.0001 µM": 94700, "IFNγ secretion, CD8 T cells, at 0.001 µM": 110000, "IFNγ secretion, CD8 T cells, at 0.01 µM": 117000, "IFNγ secretion, CD8 T cells, at 0.1 µM": 122000, "IFNγ secretion, CD8 T cells, at 1 µM": 144000, "IFNγ secretion, CD8 T cells, at 10 µM": 149000, "IFNγ secretion, CD8 T cells, at 100 µM": 127000, "IL-1β secretion, LPS treated monocytes, at 0 µM": 6240, "IL-1β secretion, LPS treated monocytes, at 0 µM (LPS only)": 6880, "IL-1β secretion, LPS treated monocytes, at 0.0001 µM": 6290, "IL-1β secretion, LPS treated monocytes, at 0.001 µM": 5850, "IL-1β secretion, LPS treated monocytes, at 0.01 µM": 6100, "IL-1β secretion, LPS treated monocytes, at 0.1 µM": 4960, "IL-1β secretion, LPS treated monocytes, at 1 µM": 5780, "IL-1β secretion, LPS treated monocytes, at 10 µM": 6420, "IL-1β secretion, LPS treated monocytes, at 100 µM": 7840, "IL-9 secretion, CD8 T cells, at 0 µM": 1350, "IL-9 secretion, CD8 T cells, at 0.0001 µM": 951, "IL-9 secretion, CD8 T cells, at 0.001 µM": 1010, "IL-9 secretion, CD8 T cells, at 0.01 µM": 1140, "IL-9 secretion, CD8 T cells, at 0.1 µM": 1090, "IL-9 secretion, CD8 T cells, at 1 µM": 1440, "IL-9 secretion, CD8 T cells, at 10 µM": 1600, "IL-9 secretion, CD8 T cells, at 100 µM": 1700}
    ]}
  ]
}
